This assay has as its target G9a or GLP catalytic SET domains. Kind of assay: ITC.

The record followed here is paper PMC3286832.

For mDnmt3a(39–50)K44me0 peptide, the Kd (usually the free concentration of one partner at which half of the binding sites on the other are occupied at equilibrium, for simple one-to-one binding) lay in the range of 4 to 6 µM.
